Paper PMC6476560 (PLoS ONE, 2019)

Assays:
Test in all cases: MST
[1] = target: fluorescently labelled Dop (deamidase of Pup; depupylase) (UniProt P9WNU9)
[2] = target: fluorescein-labelled wild-type MtbMpa (Mycobacterium tuberculosis) (UniProt P9WQN5)
[3] = target: T1, Pup-MSMEG_1807 (pupylated alpha-chain of propionyl-CoA carboxylase of M. smegmatis) (Mycobacterium smegmatis | Mycobacterium …, UniProt A0QTE1 1-598; P9WHN5 1-64, PupE (C-terminal glutamine as glutamate)); settings: both partners purified
T1 construct: copies: 2 + 1

[4] = target: T2, Pup-MSMEG_5049 (pupylated 2-oxoglutarate dehydrogenase E1 of M. smegmatis) (Mycobacterium smegmatis | Mycobacterium …, UniProt A0R2B1;P9WHN5, PupE (C-terminal glutamine as glutamate)); settings: both partners purified
T2 construct: copies: 2 + 1
T2 sequence 1: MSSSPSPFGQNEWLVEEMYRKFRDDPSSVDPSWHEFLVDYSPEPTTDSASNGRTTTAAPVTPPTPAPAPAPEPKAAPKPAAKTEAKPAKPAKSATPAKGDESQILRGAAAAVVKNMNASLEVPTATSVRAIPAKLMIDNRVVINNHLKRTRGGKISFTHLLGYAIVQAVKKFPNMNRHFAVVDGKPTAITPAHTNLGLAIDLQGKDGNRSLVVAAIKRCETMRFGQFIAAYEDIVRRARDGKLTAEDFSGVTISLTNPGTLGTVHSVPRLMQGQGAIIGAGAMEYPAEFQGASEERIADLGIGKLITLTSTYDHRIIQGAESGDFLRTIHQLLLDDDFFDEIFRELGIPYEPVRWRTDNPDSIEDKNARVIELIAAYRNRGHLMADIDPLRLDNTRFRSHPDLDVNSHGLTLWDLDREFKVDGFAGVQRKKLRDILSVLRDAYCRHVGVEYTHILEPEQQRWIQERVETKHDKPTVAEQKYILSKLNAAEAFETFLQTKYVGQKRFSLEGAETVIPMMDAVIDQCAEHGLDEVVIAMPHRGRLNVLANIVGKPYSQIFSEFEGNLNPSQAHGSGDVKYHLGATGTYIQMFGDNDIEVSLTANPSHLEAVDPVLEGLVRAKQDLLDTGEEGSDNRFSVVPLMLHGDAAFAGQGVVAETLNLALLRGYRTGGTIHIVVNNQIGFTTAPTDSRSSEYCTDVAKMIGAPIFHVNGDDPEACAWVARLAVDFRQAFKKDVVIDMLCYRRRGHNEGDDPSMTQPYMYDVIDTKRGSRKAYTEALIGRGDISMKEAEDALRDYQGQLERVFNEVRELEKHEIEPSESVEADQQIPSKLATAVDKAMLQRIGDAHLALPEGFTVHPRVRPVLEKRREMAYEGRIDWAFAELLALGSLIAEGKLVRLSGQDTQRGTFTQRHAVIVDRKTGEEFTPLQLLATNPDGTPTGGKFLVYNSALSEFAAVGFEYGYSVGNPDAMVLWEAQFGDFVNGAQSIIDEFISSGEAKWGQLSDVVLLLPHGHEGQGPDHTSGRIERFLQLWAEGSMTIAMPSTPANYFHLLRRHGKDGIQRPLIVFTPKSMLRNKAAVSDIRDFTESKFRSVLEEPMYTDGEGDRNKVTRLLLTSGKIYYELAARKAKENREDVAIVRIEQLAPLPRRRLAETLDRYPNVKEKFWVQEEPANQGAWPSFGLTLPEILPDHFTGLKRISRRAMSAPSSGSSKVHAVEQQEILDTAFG
T2 sequence 2: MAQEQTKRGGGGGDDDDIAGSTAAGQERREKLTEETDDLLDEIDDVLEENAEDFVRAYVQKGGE

[5] = target: T3, fluorescein-labelled wild-type MtbMpa (Mycobacterium tuberculosis, UniProt P9WQN5 1-609); settings: both partners purified
T3 sequence: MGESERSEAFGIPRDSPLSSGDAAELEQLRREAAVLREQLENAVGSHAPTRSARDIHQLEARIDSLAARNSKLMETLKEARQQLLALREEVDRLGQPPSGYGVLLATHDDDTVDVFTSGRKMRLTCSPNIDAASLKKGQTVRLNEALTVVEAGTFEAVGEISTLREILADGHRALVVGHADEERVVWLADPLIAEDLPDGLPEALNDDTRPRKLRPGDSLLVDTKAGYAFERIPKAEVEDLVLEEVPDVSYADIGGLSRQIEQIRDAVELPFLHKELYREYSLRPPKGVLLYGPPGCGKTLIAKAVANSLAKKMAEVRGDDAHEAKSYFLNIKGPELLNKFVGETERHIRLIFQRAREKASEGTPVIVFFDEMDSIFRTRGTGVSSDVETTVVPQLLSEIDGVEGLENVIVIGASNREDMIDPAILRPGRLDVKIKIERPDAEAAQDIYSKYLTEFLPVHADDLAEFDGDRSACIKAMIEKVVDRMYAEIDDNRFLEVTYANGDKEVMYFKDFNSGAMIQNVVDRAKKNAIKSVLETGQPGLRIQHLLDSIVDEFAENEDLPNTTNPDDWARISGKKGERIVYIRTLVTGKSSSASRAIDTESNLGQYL

Pup-MSMEG_2412 (pupylated pyruvate carboxylase of M. smegmatis) (from UniProt P9WHN5 1-64) (complex)
Kd [1]: 114 nM

Pup-FabD3KR (pupylated malonyl transacylase FabD, triple lysine-to-arginine variant) (from UniProt P9WNG5;P9WHN5) (complex)
Kd [2]: 240 nM

B1: fluorescently labelled Dop (deamidase of Pup; depupylase) (enzyme)
chain: MQRIIGTEVEYGISSPSDPTANPILTSTQAVLAYAAAAGIQRAKRTRWDYEVESPLRDARGFDLSRSAGPPPVVDADEVGAANMILTNGARLYVDHAHPEYSAPECTDPLDAVIWDKAGERVMEAAARHVASVPGAAKLQLYKNNVDGKGASYGSHENYLMSRQTPFSAIITGLTPFLVSRQVVTGSGRVGIGPSGDEPGFQLSQRSDYIEVEVGLETTLKRGIINTRDEPHADADRYRRLHVIIGDANLAETSTYLKLGTTALVLDLIEEGPAHAIDLTDLALARPVHAVHAISRDPSLRATVALADGRELTGLALQRIYLDRVAKLVDSRDPDPRAADIVETWAHVLDQLERDPMDCAELLDWPAKLRLLDGFRQRENLSWSAPRLHLVDLQYSDVRLDKGLYNRLVARGSMKRLVTEHQVLSAVENPPTDTRAYFRGECLRRFGADIAAASWDSVIFDLGGDSLVRIPTLEPLRGSKAHVGALLDSVDSAVELVEQLTAEPR
Kd [3]: 339 ± 55 nM
Kd [4]: 121 ± 28 nM

B2: MtbPupE (prokaryotic ubiquitin-like protein Pup with C-terminal glutamate), free (natural protein)
chain: MAQEQTKRGGGGGDDDDIAGSTAAGQERREKLTEETDDLLDEIDDVLEENAEDFVRAYVQKGGE
Kd [5]: 3310 ± 650 nM
